These results are taken from patent US20220275417A1 (BARCODEBODY, published 2022).

For test [1], the target named is T1, CD4 on the surface of HEK293 cells transfected with pCAGGS-CD4-myc (UniProt P01730 26-458, limits assumed).
T1 construct: whole, on cells; Cells were fixed with 4% paraformaldehyde before staining; also called CD4 surface expressing cells
Put plainly: immunofluorescence staining of fixed CD4-expressing HEK293 cells, anti-FLAG-AF488 secondary.

Test [2] addresses T2, recombinant human sCD4 CF (manufactured by R&D Systems) (human, UniProt P01730 26-390, limits assumed).
T2 construct: Immobilized on the Biacore sensor chip; also called recombinant CD4; CD4 antigen
Briefly: simultaneous binding assay on CD4-immobilized magnetic beads, barcode cleaved by enterokinase and quantified by LC-MS/MS.

For test [3], the target named is T2, recombinant human sCD4 CF (manufactured …). Briefly: SPR, Biacore T-200, CD4 immobilized on chip, as in Example 2. On the technique in general: Surface plasmon resonance follows binding to a sensor surface in real time, without labels.
Test [4] shares this target. Put plainly: SPR, Biacore T-200, antigen immobilized on chip, nanobody as analyte.

B1: anti-GFP-FLAG-barcode 2 (VHH)
VHH: QVQLVESGGALVQPGGSLRLSCAASGFPVNRYSMRWYRQAPGKEREWVAGMSSAGDRSSYEDSVKGRFTISRDDARNTVYLQMNSLKPEDTAVYYCNVNVGFEYWGQGTQVTVSS
notes: also called anti-GFP nanobody
In the case of B1, the binding result in test [1] is “no binding (tested: 3.3 µg/ml)”; in test [2] it was “no binding (tested: 0.1 µM)”.

B2: anti-CD4-FLAG (VHH)
VHH: EVQLVESGGGSVQPGGSLTLSCGTSGRTFNVMGWFRQAPGKEREFVAAVRWSSTGIYYTQYADSVKSRFTISRDNAKNTVYLEMNSLKPEDTAVYYCAADTYNSNPARWDGYDFRGQGTQVTVSS
notes: Secreted from Pichia pastoris with the alpha-factor signal, which is cleaved during secretion; also called Anri-CD4-FLAG; anti-CD4 nanobody with no barcode
As usually defined, the Kd is the equilibrium constant for the complex coming apart. The koff is the rate constant with which the complex falls apart. Usually kon stands for a measure of how fast the partners come together. As for B2, in test [3], the Kd came to 26 nM, the koff is 0.0037 s⁻¹ and the kon was found to be 140000 M⁻¹ s⁻¹. Besides, in test [4], the Kd came to 42 nM, the koff is 0.0054 s⁻¹ and the association rate constant (kon) was found to be 68000 M⁻¹ s⁻¹.

B3: anti-CD4-FLAG-barcode 1 (VHH)
VHH: B2 VHH
notes: Secreted from Pichia pastoris with the alpha-factor signal, which is cleaved during secretion; also called anti-CD4 nanobody
For the molecule B3, in test [4], the Kd came out at 52 nM, the koff was found to be 0.004 s⁻¹ and the kon stood at 77000 M⁻¹ s⁻¹.

B4: anti-CD4 with barcode 4-1 (VHH)
VHH: B2 VHH
notes: secreted from Pichia pastoris
As for B4, in test [3], the Kd came to 21 nM, the koff came to 0.003 s⁻¹ and the kon came to 140000 M⁻¹ s⁻¹.

B5: anti-CD4 with barcode 4-4 (VHH)
VHH: B2 VHH
notes: secreted from Pichia pastoris
Regarding B5, in test [3], the Kd stood at 25 nM, the koff was 0.0029 s⁻¹ and the kon was found to be 120000 M⁻¹ s⁻¹.

B6: anti-CD4 with barcode 4-3 (VHH)
VHH: B2 VHH
notes: secreted from Pichia pastoris
As to B6, in test [3], the dissociation constant Kd was determined as 26 nM, the koff came out at 0.0036 s⁻¹ and the kon was 140000 M⁻¹ s⁻¹.

B7: anti-CD4 with barcode 4-6 (VHH)
VHH: B2 VHH
notes: secreted from Pichia pastoris
For the molecule B7, in test [3], the Kd is 28 nM, the koff was 0.0033 s⁻¹ and the association rate constant (kon) was 120000 M⁻¹ s⁻¹.

B8: anti-CD4 with barcode 4-8 (VHH)
VHH: B2 VHH
notes: secreted from Pichia pastoris
As to B8, in test [3], the Kd is 19 nM, the koff was 0.0029 s⁻¹ and the kon came to 160000 M⁻¹ s⁻¹.

B9: anti-CD4 with barcode 4-7 (VHH)
VHH: B2 VHH
notes: secreted from Pichia pastoris
For B9, in test [3], the Kd came to 24 nM, the koff worked out at 0.0028 s⁻¹ and the kon was 110000 M⁻¹ s⁻¹.

B10: anti-CD4 with barcode 4-5 (VHH)
VHH: B2 VHH
notes: secreted from Pichia pastoris
Take B10: in test [3], the Kd worked out at 24 nM, the koff came out at 0.0028 s⁻¹ and the kon came out at 180000 M⁻¹ s⁻¹.

B11: anti-CD4 with barcode 4-2 (VHH)
VHH: B2 VHH
notes: secreted from Pichia pastoris
Regarding B11, in test [3], the Kd was 28 nM, the koff came out at 0.0028 s⁻¹ and the kon was 100000 M⁻¹ s⁻¹.
